Test results reported in the nanobody polyreactivity screen of Harvey et al. (2022).

assay: yeast display, Sf9 membrane polyspecificity reagent, FACS + sequencing; frameworks hold sequencing errors
Outline: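 After 36–48 hours of galactose induction, yeast (Saccharomyces cerevisiae BJ5465) displaying a synthetic nanobody library were stained at 4 °C for 1 hour with 10% biotinylated, detergent-solubilized Sf9 membrane reagent. Streptavidin microbeads enriched the stained cells before FACS sorting into low and high (top ~1%) gates on anti-HA and streptavidin fluorescence. Each clone's polyreactivity label reflects its gate of origin.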

Sequence	polyreactivity (PSR sort gate)
QVQLVESGGGLVQAGGSLRLSCAASGSTFLLNAMGWYRQAPGTERELVAAITSSGGTNYADSVKGRFTISRDNAKNTVYLQMNSLKPEDTAVYYCAKDQERVTKGRFYLLEYYWGQGTQVTVSS	low polyreactivity
QVQLVESGGGLVQAGGSLRLSCAASGSIFHMNAMGWYRQAPGKERELDASISSDGSTYYADSVKGRFTISRDNAKNTVYLQMNSLKPEVTAVYYCNADSQWALKQLSFDYWGQGTQVTVSS	low polyreactivity
QVQLVESGGGLVQAGGSLRLSCAASGGIFGSYAMGWYRQAPGKERELVAAISGGSTYYADSVKGRFTISRDNAKNTVYLQMTSLKPEDTAVYYCAAGWSVWYQDFDYWGQGTQVTVSS	high polyreactivity
QVQLVESGGGLVQAGGSLRLSCAASGSIYPFYAMGWYRQAPGKERELVATISSGDSTHYADSVKGRFTISRDNAKNTVYEQMNSLKPEDTAVYYCNRRNKAQRFFDLGYWGQGTQVTVSS	low polyreactivity
QVQLVESGGGLVQAGGSLRLSCAASGIIFSKNTMGWYRQAPGKERELVAAISRSGGTSTYYADSVKGRFTISRDNAKNTVYLQMNSLKPEDTAVYYCAAGVPRIGGYYYWGQGTQVTVSS	low polyreactivity
QVQLVESGGGLVQAGGSLRLSCAASGSTFADNAMGWDRQAPGKERELVAAISSDGSTNYADSVKGRFTISRDNAKNTVYLQMNSLKPEDTAVYYCNADGVYLGYPVVPPEGDYWGQGTQVTVSS	low polyreactivity
QVQLVESGGGLVQAGGSLRISCAASGRIFVVYVMGWYRQAPGKEREFVAAITWGGGNTYYADSVKGRFTISRDNAKNTVYLQMNSLKPEDTAVYYCNAVWYWGDMDYWGQGTQVTVSS	low polyreactivity
QVQLVESGGGLVQAGGSLRLSCAASGRIFFGYAMGWYRQAPGKERELVASISRGGSTNYADSVKGRFTISRDNAKNTVYLQMNSLKPEDTAVYYCAASRYLQRYGMYYWGQGTQVTVSS	high polyreactivity
QVHLVESGGGLVQAGGSLRLSCAASGLIFVDNAMGWYRQAPGKERELVAAIDSGGSTNYADSVKGRFTISRDNEKNTVYLQMNSLKTEDTAVYYCAADWIYAPWYYQECVEYYYWGQGTQVTVSS	low polyreactivity
QVQLVESGGGLVQAGGSLRLSCAASGRILVWYAMAWYRQAPGKERELVASISSTGGSTYYADSVKGRFTISRDNAKNTVYLQMNSLKPEDTAVYYCAAVIRSQDGRGYDYWGQGTQVTVSS	high polyreactivity
QVQLVESGGGLVQAGGSLRLSCAASGFTFVPYAMGWYRQAPGKERETNADSVKGRFTISRDNAKNTVYLQRNSLKPEDTAVYYCAADVWASRRYDYWGQGTQVTVSS	low polyreactivity
QVQLVESGGVLVQAGGSLRLSCAASGRIFRNYVMGWYRQAPGKEREMVAAISRSGGSTYYADSVKGRFTISRDNAKNTVYLQMNSLKPEDTAVYYCNAEYASRRVSERDYWGQGTQVTVSS	high polyreactivity
QVQLVESGGGLVQAGCSLRLSCAASGFTFRYYAMGSYRQAPGKERELVSAISQSGGLTFYADSVKGRFTISRDNAKITVYLQMNSLKPVDTAVFYCAAGRRTYPSKYGSWGQGSQVTVSS	high polyreactivity
QVQLVESGGGLVQAGGSLRLSCAASGRTFVSYAMGWYRQAPGKERELVATITGSTGGTYYADSVKGRFTISRDNAKNTVYLQMNSLKPEDTAVYYCNKDYYYNPGNVASGYDYWGQGTQVTVSS	low polyreactivity
QVQLVESGGCLVQAGGSLRLSCAASGSIFPPYAMGWYIPAPGKERELVAAISRRGGSTYYADSVKGRFTISRDNAKNTVYLQMNSLKPEDTAVYYCAARGGQMEYWGQGTQVTVSS	high polyreactivity
QVQLVESGGGLVQAGGSLRLSCAASGITFLGYVMGWYRQAPGKEREFVADITESGGRTYYADSVKGRFTISRDNAKNTVYLQMNSLKPEDTAVYYCAAELSYWGYYYSFDYWGQGTQVTVSS	low polyreactivity
QVQLVDSGGGLVQAGGSLRLSCAASGRTFGYYAMGWYRQAPGKERELVAAISGSGGSTYYADSVKGRFTISRDNAKNTVYLQMNSLIPEDTAVYYCIVYPPYAMDYWGQGTQVTVSS	high polyreactivity
QVQLVESGGGLVQAGGRLRLSCSASGIILPKYTMGGYRQAPGKERELVAAITRSGGSTYYADSVKGRFTISRDNAKNTVYLHMISMKPEDTAVYYCAAERASFRYQDYYIYDYWGQGTEVTVSS	high polyreactivity
QVQLVESGGGLVQAGGSLRLSCAASGLIFHSYAMGWYRPAPGKERELVAAISRGGGSTYYADSVKGRFTISRDNAKNTVYLQMNSLKPEDTAVYYCAREYFTRYDYWGQGTQVTVSS	high polyreactivity
QVQLVESGGGLVQAGGSLRLSCAASGITFVRYAMGWYRQAPGKERELVAAINFSGGNTYYADSVKGRFTISRDNAKNTVYLQMNSLKPEDTAVYYCNAKRNYVRGRQGDWYIGYGYWGQGTQVTVSS	high polyreactivity
QVQLVESGGGLVQAGGSLRLSCAASGSIIHSYAMGWYRQAPGKERELVAAISRNGGSTYYADSVKGRFTISRDNAKITVYLQMNSLKPEDTAVYYCAKTYSQTWRYGYWGQGTQVTVSS	high polyreactivity

Sequence	polyreactivity (PSR sort gate)
QVQIVESGGGLVQAGGSLRLSCAASGTTFDAYAMGWYRQAPGKERELVAAITNAGSTNYADSVKGRFTISRDNAKNTVYLQMNSLKPEETAVYYCATDWYHRYLDGRYDYWGQGTQETVSS	low polyreactivity
QVQLVESGAGLVQAGGRLRLSCAASGSTFGYYAMGLYTQAPGTERELVAVITTRVGSTYYADSVKGRFTISRDNAKNTVYLQMNSLKPEDTAVYYCNASGRTRSYSGSFSKHYYWGQGTKVTVSS	high polyreactivity
QVQLVESGGGLVQAGGSLRLSCAASGFTFYWYAMGWYRQAPGKERELVAAITSGGGTTYYADSVKGRFTISRDNAKNTVYLQMNSLKPEDTAVYYCAADSYTYPWIERDYWGQGTQVTVSS	high polyreactivity
QVQLVESGGGLVQAGGSLRLSCAASGSTFPHYAMGWYRQAPGKERELVAAISWSGSSTYYADSVKGRFTISRDNAKNTVYLQMNSLKPEDTAVYYCNILPRRAPQFTYDYWGQGTQVTVSS	high polyreactivity
QVQLVESGAGLVQAGGSLRLSCAASGRTVAWNAMGRYRQAPGKERELVAAISWSGTSTYYADSVKGRFTISRDNAKNTVYLQMNSLKPEDTAVYYCATSVKARQIYGYYYWGQGTQVSVSS	high polyreactivity
QDQLVESVGCLVQAGGSLRLSCAATGRIFQSYAMGWYRQAPGKERELVAGIRAGGGRTYYADSVKGRFTISRDIAKNTVYVQMNSLKPEDTAVDYCAARFVGSFYAPFDYWGQGTLVTVSS	low polyreactivity
QVQLVESGGGLVQAGGSLRLSCAASGSTFFGYTMGWYRQAPGKERELVAAITASDGSTYYADSVKGRFTISRDNAKNTVYLQMNSLKPEDTAVYYCNADYRLVRSFRLSSYTYIYDYWGQGTQVTVSS	low polyreactivity
QVELVESGGGLVQAGGSLRLSCAASGFTFRYYAMGWYRQAPGKERELVAAINASGGRTYYADSVKGRFTISRDNAKNTVYLQMNSLKPEDTAVYYCAARSIRQHYGMDYWGQGTQVTVSS	high polyreactivity
QVQLVESGGRLVQAGGSIRLSCAASGGIFTAYAMGCYRQAPGKEREFVAGIDRSGGRTYYADSVKGRFTISRDNAKNNVYLQMNSLKPEDTAVYYCYARGYVYQNQLYYYWGQGSQVTVSS	high polyreactivity
QVQLVESGGGIVQAGGSLRLSCAASGSTSGSYGMGWYRQAPGKERELVAAIRWSGGRTYYADSVKGRFTISRDKAKNTVYLQMNSLKPEDTAVYFCAKFRYTVSGYNYWGQRTQVTVSS	high polyreactivity
QVQLVESGGGLVQAGGSLRLSCAASGSTFQGNAMGWYRHAPGKERELVAAISRSGGSTYADSVKGRFTISRDNAKNTVYLQINSLKPEDTAVYYCAAYSGVGYLWFDYWGQGTQVTVSS	low polyreactivity
QVQLVESGGGLVQAGGSLRLSCAASGRTFLAYTMGWYRQAPGKEMELVAAISTPGGSTYYADSVKGRFTISRDNAKNTVYIQMNSLKPEDTAVYYCAAADSTWFDWGNYWYYYWGQGTQVTVSS	low polyreactivity
QVQLVESGGGLVQAGGSLRLSCAASGIIFGGYAMGWYGQAPGKERELVASITWGGGSTYYADSVKGRFTISRDNAKNTVYLQMNSLKPEDTAVYYCNKRGYPGSDWGQGTQVTVSS	low polyreactivity
QDQLVESGGGLDQAGGSLRLSCAAYGSTFGYYALGWSRQAPGKERELVAAISWSGSNTYYADSVKGRFTISRDNAKNTVYLQMNSLTPEDTAVYYCAAVYRGSRAWGYDYWGQGTQVTVSS	high polyreactivity
QVHLVESGGRLVQAGGSLRLSCAASGSTFGYYAMVWYRHAPGKDRELVAAITSGASTYYADSVKGRFTISRDNAKKTVYLQMNSLKPEDTAVYYCAARRWRKYYSGYNYWGQGTQVTVSA	high polyreactivity
QVQLVESGGGLVQAGGSLRLSCAASGGIFGRNAMGWYRQAPGKEMELVAAISSSGGTTYYADSVKGRFTISRDYAKNTVYLQMNSMKPEDTAVYYCNAAYYWRSFHDDYFGQGTQVTVSS	high polyreactivity
QVQLVESGGGLVQAGGSLRLSCAASGSIFTHYAMGWYRQAPGKERELVAAISRRGGSTYYADSVKGRFTISRDNAKNTVYLQMNSLKPEDTAVYYCAVRLYLEMDYWGQGTQVTVSS	high polyreactivity
QVQLVESGGGLVQAGGSLRLSCAASGRTFLLYAMGWYRQAPGKERELVAAISRGGGSTFYADTVKGRFTLSRDNAKNTVYLQRNSLKPDDTAVYYCAAYGRYYYIYDYCGQGTQVTVSS	high polyreactivity
QVQLVESVGGLVQAGGSLRLSSAASGIIFRRYPMVWYREPPGKDRELVAAISSGGRTYYADSGKGRFTISRDNAKNSVYLHMNSLKQEDTAVYYCAARWWYKNKYWGQGTQVTVSS	high polyreactivity
QVQLVESGGGLVQAGGSLRLSCAASGSTFEANAKGWYRQAPGKERELVAVITWTGGSTYYADSVKGRFTISRDYAKNTVYLQMNSLKPEDTAVYYCAAKFHRFAWYSHYDYWGQGTQVTVSS	low polyreactivity
